This series deals with the molecule itself. The series can be described thus: SEC. Background: SEC sorts molecules by how far they enter the pores of the column.

This is an account of results in paper PMC2585861 (The Journal of General Physiology, 2008).

As usually defined, the stoichiometry N is the number of molecules, sites or subunits per partner or assembly.

B1: KvLm-PM, pore module of KvLm (S4-S5 linker-S5-P-S6-C-terminus) (domain or fragment, Listeria monocytogenes, UniProt Q8Y5K1 98-247, looked up)
chain: RYIVPIYSFFRSNGLNRFLMIFVLLVIIIPVPMVFIEPEINNYPDALWWAIVTATTVGYGDIVPVTPIGRILASIMMLFGIAFIGMITSTITNFFRAKKPTNSSTQRANKITQLISETPDLTKEEIAVVEQFLTLRKKELADENTKSDSE
In the case of B1, the “stoichiometry N” value was determined as 4.
